Data as given in patent publication US20220396632A1 (VERSEAU THERAPEUTICS, published 2022).
Changes are numbered by the printed parent chain. Non-standard residues stand in square brackets, D forms with d. No end group written: not given here. *: point of attachment. Biotin = O=C1N[C@H]2[C@H](CS[C@H]2CCCCC(=O)*)N1; sY = N[C@@H](Cc1ccc(OS(=O)(=O)O)cc1)C(=O)O

T1: Sulfotyr fibrinogen γ peptide (not fully specified; Y8 and Y12 sulfated (SO3); C-terminal biotin)
T1 construct: also called Fibrinogen gamma peptide; human sulfotyrosinylated fibrinogen peptide
T1 peptide: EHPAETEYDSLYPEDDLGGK

T2: Sulfotyrosine D6 biotin peptide (human)
T2 construct: also called D6 peptide
T2 peptide: ENSSFY[sY][sY]D[sY]LDEVAFGGK(Biotin)

T3: Recombinant human PSGL-1(ECD)-hFc1 (R&D Systems, Cat. 3345-PS) (human, UniProt Q14242 42-305)
T3 construct: Bought; Gln42-Val295 counted on AAC50061; also called PSGL-1-Fc; PSGL-1-hFc1 chimera; not shown: human IgG1 Fc, Pro100-Lys330
T3 sequence: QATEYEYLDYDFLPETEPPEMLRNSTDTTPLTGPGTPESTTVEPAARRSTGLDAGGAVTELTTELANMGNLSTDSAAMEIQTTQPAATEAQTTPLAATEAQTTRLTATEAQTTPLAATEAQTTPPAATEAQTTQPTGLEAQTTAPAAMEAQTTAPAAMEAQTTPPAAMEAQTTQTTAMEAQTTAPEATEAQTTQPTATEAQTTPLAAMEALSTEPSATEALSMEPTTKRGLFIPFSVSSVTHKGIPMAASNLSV

B1: 05C02 (antibody, V domains shown)
VH: EVKLLESGGGVVQPGRSLRLSCAASGFTFKNFAMHWVRQAPGKGLEWVAVISYDGSSEDYADSVKGRFTLSRDNAKNSLYLQMNNLRAEDTAVYYCARGRRPDYWGQGTLVTVSS
VL: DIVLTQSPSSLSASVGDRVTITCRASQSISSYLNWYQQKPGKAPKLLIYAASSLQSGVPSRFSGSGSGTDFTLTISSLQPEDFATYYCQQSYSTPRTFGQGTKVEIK
B2: 09D04 (antibody, IgG4, V domains shown)
VH: QVQLQQSGGGLVQPGGSLTLSCVGSGFDFRSYAMSWVRQAPGKGLEWVSGINNSGSKTYYADFVKGRFSVSRDNSKNIVWLRMRSLRAEDTAVYYCARRTFGPPHAWGQGTMVTVSS
VL: DVVMTQSPLSLPVTPGEPASISCRSSQSLLHSNGYTYLEWYLHKPGQSPQLLIYLGSNRASGVPDRFSGSGSGTDFTLKISRVEAEDVGVYYCMHSLHIPFTFGPGTKVDIK
B3: 05H03 (antibody, IgG4, V domains shown)
VH: B2 VH
VL: DIVMTQSPLSLSVTPGEPASISCRSSQSLLHSNGYKYLDWYLQKPGQSPQLLIYMGSNRASGVPDRFSGSGSGTDFTLKISRVEAEDVGVYYCMQGLQSPLTFGGGTKVEIE
B4: 06A07 (antibody, IgG4, V domains shown)
VH: QVQLVQSGPELKNPGASVKVSCKASGYSFTNFYINWVRQAPGRGLEWVGWISPNNGNTHYARNLQGRVTMTTDTSTNTAYLELKNLRSDDTAIYFCGRSVSMGYWGQGTLVTVSS
VL: LPVLTQPPSVSKGLRQTATLTCTGNSKNVGNQGAAWLQQHQGQPPKLLSYRNNNRPSGISERFSASRSGNTASLTITGLQPEDEADYYCSAWDSSLSAQVFGGGTKLTVL
B5: 09A02 (antibody, IgG4, V domains shown)
VH: EVQLVQSGGGLVKPGGSLRLSCAASGFTFRTAWMSWVRQAPGKGLEWVGRMKSKNDGGTTDYAAPVKGRFTISRDDSRDTVYLQMNSLKTEDTGVYYCATYAAGATVPWGQGTLVTVSS
VL: DIVMTQTPLSAPVTLGQPASISCRSSRSLLQRNGYNYVDWYQQKAGNPPRLLIYLGSRRASGVPDRFSGSGSDKDFTLKISRVEADDVGFYFCKQSLQAPPTFGGGTKIEIT
B6: 09A08 (antibody, IgG4, V domains shown)
VH: QVQLVQSGAAVKKPGESLKISCKGSGYTFSNYWIGWVRQMPGKGLEWMGIIYPGDSDTRYSPSFQGQVTISADKSISTAYLQWSSLKASDTAMYYCARHIVGPPKSAFDIWGQGTMVTVSS
VL: DIVMTQTPLSLPVTLGQPASISCSSSQGLQKRDGNTYLNWFQQRPGQSPRRLIYKVSNRDSGVPDRFSGSGSGTDFTLKISRVEAEDVGVYYCMQGTHWPWTFGQGTRVEIK
B7: 07E07 (antibody, IgG4, V domains shown)
VH: QVQLQQSGAEVKKPGASVKVSCKASGYTFTSYYMHWVRQAPGQGLEWMGIINTSSGSTKYAQRFQDRVTVTRDTSTTTVYMELNSLRSEDTAVYYCARGGRAYSGSFDNWGQGTLVTVSS
VL: B6 VL with I2V, T7S, S24R, G28S, Q30V, K31H, L38F, G96A, W101R, R108K
B8: 06C04 (antibody, IgG4, V domains shown)
VH: EVQLVESGGGLVQPGGSLRLSCAASGFTFSDHYMDWVRQAPGKGLEWVGRSRNKVKSYTTAYAASVEGRITISRDDSKNSLYLEMNSLKTEDTAVYYCVRVRWGGAFDIWGQGTMVTVSS
VL: QPVLTQPPSASGSPGQSVTISCTGTSSDVGGYNYVSWYQQHPGKAPKLMIYEVSKRPSGVPDRFSGSKSGNTASLTVSGLQAEDEADYYCSSYAGSNNLRVFGGGTKLTVL
B9: 03F03 (antibody, V domains shown)
VH: QVQLQESGPGLVKPSETLSLTCTVSGGSISSSSYYWGWIRQPPGKGLEWIGSIYYSGSTYYNPSLKSRVTISVDTSKNQFSLKLSSVTAADTAVYYCARSRPRPWAFDIWGQGTMVTVSS
VL: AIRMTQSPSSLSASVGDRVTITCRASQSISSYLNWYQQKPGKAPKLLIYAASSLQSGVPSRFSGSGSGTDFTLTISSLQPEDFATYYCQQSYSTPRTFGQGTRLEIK
B10: 11D10 (antibody, IgG4, V domains shown)
VH: EVKLLESGGGLVQPGGSLRLSCAVSGFTFSTSAMIWVRQAPGKGLEWVSFISGSTSNTYYADSVKGRFTISRDNSKNTLYLQMNGLTAEDTAVYYCARGTAAATWGQGALVTVSS
VL: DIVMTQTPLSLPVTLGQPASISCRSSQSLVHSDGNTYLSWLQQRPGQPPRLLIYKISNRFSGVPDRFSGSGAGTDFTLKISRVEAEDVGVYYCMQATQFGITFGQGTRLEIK
B11: 05D01 (antibody, V domains shown)
VH: QVTLRESGGALVQPGGSLRLSCAASGFPLRSNAMTWVRQAPGKGLEWVSDIRGNGASTYYADSVKGRFTISRDDSNNILFLQMNSLRAEDTAVYYCVGHGSSSYWGQGTLVTVSS
VL: DVVMTQSPLSLPVTLGQPASISCRSSQSLVYRDGNIYLNWFQQRPGQSPRRLIYKVSNRDSGVPDRFSGSGSGTDFTLKISRVEAEDVGVYYCMQLTHWPPGFAQGTKLEIK
B12: 09C10 (antibody, V domains shown)
VH: EVKLLESGGGLIQPGGSLRLSCAASGFTVSNNYVTWVRQAPGKGLELVSSIYSGGGTYYADSVKGRFTISRDNSKNTVYLQMNSLRADDTAVYYCARNVPVTNFGYWGQGTLVTVSS
VL: B11 VL with V2I, I36T
B13: 05E08 (antibody, IgG4, V domains shown)
VH: EVQLVQSGGGVVQPGRSLRLSCAASGFTFSTYAMHWVRQAPGKGLEWVAVISYDGSNKYYADSVKGRFTISRDNSRNTLFLQMNSLRDEDTAVYYCAKRGTMIRGERSLDFWGQGTLVTVSS
VL: AIQMTQSPSFLSASVGDRVTITCRASQGINSWLAWYQQKPGTAPNLLIHAASTLQSGVPSRFSGSRSGTEFTLTISSLQPEDFATYYCQQLQSYPLTFGQGTRLEIK
B14: 05A11 (antibody, IgG4, V domains shown)
VH: EVKLLESGGGVVQPGRSLRLSCAASGFSFSAYGMHWVRQAPGKGLEWVSSISGSGDGTYYADSVKGRFTISRDNSKNTLYLQMNSLRAEDAAVYYCAKSVKGRGYFFDYWGQGTLVTVSS
VL: DIVLTQSPSSLSASVGDRVTITCRASQSISSYLNWYQQKPGKAPKLLIYAASSLQSGVPSRFSGSGSGTDFTLSISNLQPEDFATYYCQQAYKFPRSFGGGTKVEFK
B15: 43B6 (antibody, V domains shown)
VH: EVQLQQSGPDLVKPGALVKISCKASGYSFTAYYIHWVKQSHGKSLEWIGRVNPNTGGTSYNPKFKGKAILNVDKSSSTAYMELRSLTSEDSAVYYCARSGSPYYRYDDWGQGTTLTVSS
VL: ENVLTQSPAIMSASPGEKVTMTCRASSTVNSTYLHWFQQKSGASPKLWIYGSSNLASGVPARFSGSGSGTSYSLTISSVEAEDAATYYCQQYSGYPLTFGAGTTLELK
notes: Control anti-PSGL-1 mAb, recombinant; only variable domains given; also called 43B3

Biological target: T1, Sulfotyr fibrinogen γ peptide
Assay: ELISA, 50 nM mAb
Description: (§1) Recombinant PSGL-1-hFc1 chimera protein consisting of PSGL-1's extracellular domain (ECD) served as a positive control. […] Primary antibody was added (25 ul per well) in duplicate at 50 nM in assay buffer (blocking buffer containing 0.05% Tween®20) into test and control (just blocked) wells and the plate incubated for 45 min at 37° C.
With B1 the “binding normalized to PSGL-1” value was 0.42.
With B2 the “binding normalized to PSGL-1” value was 0.49.
With B3 the “binding normalized to PSGL-1” value was 0.68.
For B4, the “binding normalized to PSGL-1” value was 0.69.
For B5, the “binding normalized to PSGL-1” value was 1.06.
B6 was tested, and the “binding normalized to PSGL-1” value was 0.14.
With B7 the “binding normalized to PSGL-1” value was 1.04.
With B8 the “binding normalized to PSGL-1” value was 1.15.
B9 was tested, and the “binding normalized to PSGL-1” value was 1.33.
B10 was tested, and the “binding normalized to PSGL-1” value was 0.26.
In the case of B11, the “binding normalized to PSGL-1” value is reported as 0.89.
B12 was tested, and the “binding normalized to PSGL-1” value was 1.3.
With B13 the “binding normalized to PSGL-1” value was 1.05.
For B14, the “binding normalized to PSGL-1” value was 0.87.

Biological target: T2, Sulfotyrosine D6 biotin peptide
Assay: ELISA, 50 nM mAb
Description: as §1
For B1, the “binding normalized to PSGL-1” value was 0.52.
For B2, the “binding normalized to PSGL-1” value was 0.75.
In the case of B3, the “binding normalized to PSGL-1” value is reported as 0.8.
With B4 the “binding normalized to PSGL-1” value was 0.68.
B5 was tested, and the “binding normalized to PSGL-1” value was 1.1.
For B6, the “binding normalized to PSGL-1” value was 0.6.
With B8 the “binding normalized to PSGL-1” value was 0.26.
With B10 the “binding normalized to PSGL-1” value was 0.08.
For B11, the “binding normalized to PSGL-1” value was 0.84.
With B12 the “binding normalized to PSGL-1” value was 1.2.
For B14, the “binding normalized to PSGL-1” value was 0.45.

These binders were tested against T3, Recombinant human PSGL-1(ECD)-hFc1 (R&D …) (assay: blocking ELISA vs L-selectin-Fc).
Description: A typical selectin blocking ELISA assay involved coating high binding half-well plates (Corning, Cat. #3690) with 2.5 ug/mL/25 ul per well of recombinant PSGL-1-Fc protein (R&D Systems, Cat #3345-PS) in PBS, pH 7.4, overnight at 4° C. […] Antibody (test and controls) was serially diluted (25 ul/well) in duplicate in assay buffer (3% BSA in wash buffer) into appropriate wells and the plate incubated for 45 min at 37° C. […] The plate was washed ×3 and HRP-conjugated streptavidin was added in assay buffer [25 ul per well; (Jackson Immunoresearch, Cat. #016-030-084)] and the plate incubated for 45 min at 37° C. […] For each antibody, an IC50 value was determined from sigmoidal fitted titration curves.
With B15 the “% max Block” value was 100% and the IC50 was 6 nM.

These binders were tested against T3, Recombinant human PSGL-1(ECD)-hFc1 (R&D …) (assay: blocking ELISA vs VISTA-Fc, pH 6.0).
In the case of B15, the “% max Block” value is reported as 100% and the IC50 is reported as 9 nM.

Each binder was assayed against T4, Cynomolgus PSGL-1(ECD)-hFc1 (cynomolgus macaque) (assay: ELISA, 20 nM mAb on plate cyno PSGL-1(ECD)-Fc).
T4 construct: also called Cyno PSGL1-Fc; Cyno PSGL-1(ECD)-Fc
Method in brief: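 Cyno PSGL-1(ECD) coated overnight at 4 °C, 3 µg/mL in PBS pH 7.4. Anti-PSGL-1 IgG applied at single 20 nM or as 0.003–200 nM curves, 45 min at 37 °C. HRP/TMB read at A450, with duplicates averaged and background subtracted.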
Work on B1 yielded an A450nm of 0.64 A450 nm.
Work on B2 yielded an A450nm of 1.93 A450 nm.
B3 gave an A450nm of 2.01 A450 nm.
For B4, the A450nm was 1.27 A450 nm.
In the case of B5, the A450nm is reported as 0.73 A450 nm.
B6 was tested, and the A450nm was 1.18 A450 nm.
Binder B7 has an A450nm of 0.38 A450 nm.
Binder B8 has an A450nm of 0.55 A450 nm.
For B9, the A450nm was 0.58 A450 nm.
Work on B10 yielded an A450nm of 1.4 A450 nm.
With B11 the A450nm was 1.38 A450 nm.
For B12, the A450nm was 1.17 A450 nm.
In the case of B13, the A450nm is reported as 0.77 A450 nm.
For B14, the A450nm was 0.7 A450 nm.
